# In article PMC5823917, “Sumoylation regulates FMRP-mediated dendritic spine elimination and maturation” (Nature Communications, 2018):
# Biological target: the molecule itself
# Experiment: pull-down; GST-FMRP (1-160) 1 ug with 2 ug His-FMRP (1-160), 2 h at 4 °C in dimerization buffer (50 mM Tris-HCl pH 8, 150 mM NaCl, 2.5 mM MgCl2, 0.5% NP40, 0.5 mM DTT); glutathione beads, five washes; free GST as control
protein,measurement,value
"FMRP (1-160 aa), N-terminal domain, GST-tagged and His-tagged copies (domain or fragment, FMRP, N-terminal domain, residues 1-160; Two differently tagged copies of one fragment: GST-FMRP (1-160) held on glutathione beads and His-FMRP (1-160) in solution; each copy carries one tag, not both; also called GST-FMRP (1-160); His-FMRP (1-160 aa); source: E. coli BL21(DE3), purified (glutathione gel for GST-FMRP, Nickel resin for His-FMRP)) not shown",binding result,binds
